Patent publication US20170253670A1

Legend:
[1] = target: cynomolgus FolR1 monovalent Fc fusion, biotinylated (cynomolgus); assay: SPR Biacore, monovalent, binder captured via anti-Fab
[2] = target: human FolR1 monovalent Fc fusion, biotinylated (human) (UniProt P15328); assay: as above
[3] = target: cynomolgus FolR1 monovalent Fc fusion, biotinylated (cynomolgus); assay: SPR Biacore, bivalent avidity (apparent KD), antigen on chip
[4] = target: human FolR1 monovalent Fc fusion, biotinylated (human) (UniProt P15328); assay: as above
[5] = target: cynomolgus FolR1 monovalent Fc fusion, biotinylated (cynomolgus); assay: SPR Biacore, bivalent avidity, antigen on chip
[6] = target: human FolR1 monovalent Fc fusion, biotinylated (human) (UniProt P15328); assay: SPR Biacore, bivalent avidity, antigen on chip

cynomolgus FolR1 monovalent Fc fusion, biotinylated (cynomolgus), sequence (chain, as listed by the source limits assumed, form in doubt): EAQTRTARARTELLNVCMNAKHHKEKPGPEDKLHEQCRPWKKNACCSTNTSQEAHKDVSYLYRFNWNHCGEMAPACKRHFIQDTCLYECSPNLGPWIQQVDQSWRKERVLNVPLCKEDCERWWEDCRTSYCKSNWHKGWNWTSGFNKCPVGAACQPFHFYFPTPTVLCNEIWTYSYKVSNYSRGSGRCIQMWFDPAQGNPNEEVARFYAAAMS
human FolR1 monovalent Fc fusion, biotinylated (human), sequence (P15328 25-233 limits assumed): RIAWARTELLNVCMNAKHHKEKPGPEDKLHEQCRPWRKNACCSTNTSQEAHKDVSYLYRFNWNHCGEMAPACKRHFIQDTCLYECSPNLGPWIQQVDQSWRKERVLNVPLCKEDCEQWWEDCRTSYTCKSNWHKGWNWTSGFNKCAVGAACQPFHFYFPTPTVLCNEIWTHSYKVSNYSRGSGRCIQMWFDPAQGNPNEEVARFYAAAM

Row | Kd [1] | koff [1] | kon [1] | Kd [2] | koff [2] | kon [2] | Kd [3] | Kd [4] | koff [5] | kon [5] | koff [6] | kon [6] | Binder
1 | 0.65 nM | 0.000193 s⁻¹ | 297000 M⁻¹ s⁻¹ | 0.55 nM | 0.000159 s⁻¹ | 289000 M⁻¹ s⁻¹ | 0.108 nM | 0.14 nM | 0.000139 s⁻¹ | 1.29e+06 M⁻¹ s⁻¹ | 0.000121 s⁻¹ | 861000 M⁻¹ s⁻¹ | Mov19 IgG (antibody, from a related filing, V domains shown, part only) VH: QVQLQQSGAELVKPGASVKISCKASGYSFTGYFMNWVKQSHGKSLEWIGRIHPYDGDTFYNQNFKDKATLTVDKSSNTAHMELLSLTSEDFAVYYCTRYDGSRAMDYWGQGTTVTVSS VL: DIELTQSPASLAVSLGQRAIISCKASQSVSFAGTSLMHWYHQKPGQQPKLLIYRASNLEAGVPTRFSGSGSKTDFTLNIHPVEEEDAATYYCQQSREYPYTFGGGTKLEIK
2 | 67.3 nM | 0.0373 s⁻¹ | 553000 M⁻¹ s⁻¹ |  | 0.023 s⁻¹ | 417000 M⁻¹ s⁻¹ | 0.65 nM |  | 0.000868 s⁻¹ | 1.33e+06 M⁻¹ s⁻¹ | 0.0009 s⁻¹ | 1.23e+06 M⁻¹ s⁻¹ | Farletuzumab (antibody, INN chains, looked up, V domains shown) VH: EVQLVESGGGVVQPGRSLRLSCSASGFTFSGYGLSWVRQAPGKGLEWVAMISSGGSYTYYADSVKGRFAISRDNAKNTLFLQMDSLRPEDTGVYFCARHGDDPAWFAYWGQGTPVTVSS VL: DIQLTQSPSSLSASVGDRVTITCSVSSSISSNNLHWYQQKPGKAPKPWIYGTSNLASGVPSRFSGSGSGTDYTFTISSLQPEDIATYYCQQWSSYPYMYTFGQGTKVEIKR
